Assay [1] deals with Peptide sequence V: Bz-…(mPeg2)(KLCBiot)-amide. Description: ECL bead immunoassay; uncleaved peptide sequence V on streptavidin beads, FXa 0.00 ng/mL, 10 minute incubation.
For assay [2] the target is unchanged. Description: ECL bead immunoassay; uncleaved peptide sequence V on streptavidin beads, FXa 0.00 ng/mL, 20 minute incubation.

Data on one substance can be found in patent publication US20140141450A1.

Turning to “BV TAG Plus-conjugated ANTI-FLAG® M1 antibody”, the Mean Signal (ECL, background without FXa) amounted to 345 ECL signal in assay [1] and 319 ECL signal in assay [2].
